First the molecules themselves.
T1: hu-IL-36β (human)
T1 sequence: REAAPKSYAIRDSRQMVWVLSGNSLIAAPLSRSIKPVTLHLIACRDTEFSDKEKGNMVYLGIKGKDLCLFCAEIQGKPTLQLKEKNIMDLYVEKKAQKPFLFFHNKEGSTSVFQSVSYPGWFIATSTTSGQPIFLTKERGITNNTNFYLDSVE

B1: mAb8.0 Fab (Fab, V domains shown)
VH: QVQLVQSGAEVKKPGSSVKVSCKASGGTFSNYAISWVRQAPGQGLEWMGGILPILGTVDYAQKFQGRVTITADESTSTAYMELSSLRSEDTAVYYCAREPWYRLGAFDVWGQGTLVTVSS
VL: DIQMTQSPSSLSASVGDRVTITCRASQTIYKYLNWYQQKPGKAPKLLIYAASSLQSGVPSRFSGSGSGTDFTLTISSLQPEDFATYYCQQYSSIPYTFGQGTKVEIK
B2: mAb7.0 Fab (Fab, V domains shown)
VH: QVQLVESGGGVVQPGRSLRLSCAASGFTFSSYGMHWVRQAPGKGLEWVAVISYGGSERYYADSVKGRFTISRDNSKNTLYLQMNSLRAEDTAVYYCAREPWYSSRGWTGYGFDVWGQGTLVTVSS
VL: EIVLTQSPGTLSLSPGERATLSCRASQSVSSNYLAWYQQKPGQAPKLLIYSASSLQSGVPSRFSGSGSGTDFTLTISSLQPEDFATYYCQQTYSYPPTFGQGTKVEIK
B3: mAb6.0 Fab (Fab, V domains shown)
VH: QLQLQESGPGLVKPSETLSLTCTVSGGSITSSNYYWGWIRQPPGKGLEWIGSIDYTGSTYYNPSLKSRVTISVDTSKNQFSLKLSSVTAADTAVYYCARGKYYETYLGFDVWGQGTLVTVSS
VL: QSVLTQPPSVSGAPGQRVTISCTGSSSNIGAGYDVHWYQQLPGTAPKLLIYGNTNRPSGVPDRFSGSKSGTSASLAITGLQAEDEADYYCQSYDISLSGWVFGGGTKLTVL
B4: mAb2.0 Fab (Fab, V domains shown)
VH: QLQLQESGPGLVKPSETLSLTCTVSGGSISTSSYYWGWIRQPPGKGLEWIGSIYYTGNTYYNPSLKSRVTISVDTSKNQFSLKLSSVTAADTAVYYCARVRYGVGVPRYFDPWGQGTLVTVSS
VL: B3 VL with G32H, T54D, I95Y, W100Y
B5: mAb5.0 Fab (Fab, V domains shown)
VH: EVQLLESGGGLVQPGGSLRLSCAASGFTFSTYAMSWVRQAPGKGLEWVSGISGGSGYTYYADSVKGRFTISRDNSKNTLYLQMNSLRAEDTAVYYCARVVTYRDPPASFDYWGQGTLVTVSS
VL: B3 VL with G32H, T54D, I95Y, S98K, G99A, W100Y
B6: mAb3.0 Fab (Fab, V domains shown)
VH: B4 VH with T31S, S32T, Y54H, T56S, R101H, V104G, G105Y, V106I, Y109R, P112H
VL: B3 VL with I95Y, S98R, W100Y
B7: mAb1.0 Fab (Fab, V domains shown)
VH: QVQLVESGGGVVQPGRSLRLSCAASGFSFSAYAMHWVRQAPGKGLEWVAVISYDGTNEYYADSVKGRFTISRDNSKNTLYLQMNSLRAEDTAVYYCARGIRIFTSYFDSWGQGTLVTVSS
VL: B3 VL with G32H, G52S, T54N, I95Y, S98R, W100Y
B8: mAb4.0 Fab (Fab, V domains shown)
VH: QLQLQESGPGLVKPSETLSLTCTVSGGSIGSRSYYWGWIRQPPGKGLEWIGSIHYSGTTYYNPSLKSRVTISVDTSKNQFSLKLSSVTAADTAVYYCARVAPSYPRVFDYWGQGTLVTVSS
VL: B3 VL with T54R, I95Y, S98R, G99V, W100Y

Residue numbers refer to the chain shown, from its start.

hu-IL-36α (human), sequence (Q9UHA7 6-158 limits assumed): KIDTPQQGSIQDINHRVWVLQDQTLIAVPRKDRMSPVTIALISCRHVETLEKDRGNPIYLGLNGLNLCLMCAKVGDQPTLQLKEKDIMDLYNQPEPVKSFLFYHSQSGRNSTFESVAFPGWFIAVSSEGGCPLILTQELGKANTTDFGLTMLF

One test has as its target hu-IL-36α (human) (UniProt Q9UHA7). Nature of the test: ELISA, yeast Fab supernatant.
B1 showed an ELISA OD450 of 0.0698 OD450. On to B2, for which the ELISA OD450 was found to be 0.0604 OD450.

The molecule B3 displayed an ELISA OD450 of 0.0638 OD450.

The target in another test is T1, hu-IL-36β (human). The test is described as follows: ELISA, yeast Fab supernatant.
As for B4, the ELISA OD450 stood at 0.0604 OD450. B5: the ELISA OD450 came to 0.129 OD450. Regarding B6, the ELISA OD450 was 0.11 OD450. Take B7: the ELISA OD450 was determined as 0.0523 OD450. As to B8, the ELISA OD450 was 0.0513 OD450.

For a further test, the target named is hu-IL-36γ (human) (UniProt Q9NZH8). Nature of the test: ELISA, yeast Fab supernatant.
hu-IL-36γ (human), sequence (Q9NZH8 18-169 limits assumed): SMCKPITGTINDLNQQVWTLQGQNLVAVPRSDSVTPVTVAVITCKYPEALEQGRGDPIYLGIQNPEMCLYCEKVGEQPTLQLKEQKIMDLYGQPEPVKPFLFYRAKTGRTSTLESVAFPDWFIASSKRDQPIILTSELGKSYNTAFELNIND
In turn, B1 showed an ELISA OD450 of 0.073 OD450. On the same count and under the same terms, the value for B2 was 0.0724 OD450; that for B3 was 0.0656 OD450.
